Molecular target: TDG (recombinant murine TDG) (Mus musculus, UniProt P56581 1-421)
Experiment: competition; competes TDG-Sra1 and TDG-Neat1 complexes; higher affinity than lncRNA; BER buffer: 50 mM HEPES pH 8.0, 70 mM KCl, 0.5 mg/mL BSA, 7 mM MgCl2, 1 mM DTT, RNase inhibitor; RT, 15 min (buffer stated for lncRNA EMSA; 60 bp EMSA: 2 µM TDG, 2 µM substrate, RT 15 min)
Settings: protein: recombinant; blunt, one G·U mismatch

TDG (recombinant murine TDG), sequence (P56581 whole entry): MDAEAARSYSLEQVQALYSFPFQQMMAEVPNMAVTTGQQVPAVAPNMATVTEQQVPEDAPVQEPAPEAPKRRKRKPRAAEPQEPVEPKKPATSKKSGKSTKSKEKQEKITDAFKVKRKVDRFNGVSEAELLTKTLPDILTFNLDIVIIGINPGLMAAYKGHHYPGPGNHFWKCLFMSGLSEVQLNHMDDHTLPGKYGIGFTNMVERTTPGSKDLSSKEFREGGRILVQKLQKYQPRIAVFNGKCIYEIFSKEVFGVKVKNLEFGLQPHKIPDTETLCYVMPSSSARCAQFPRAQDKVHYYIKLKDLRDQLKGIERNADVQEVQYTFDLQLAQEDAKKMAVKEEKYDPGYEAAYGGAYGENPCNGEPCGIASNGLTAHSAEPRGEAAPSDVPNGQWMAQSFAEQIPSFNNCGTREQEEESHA

B1: Subs60 G·U (unlabeled competitor) (dsDNA)
DNA 1: TAGACATTGCCCTCGAGGTACCATGGATCCGATGTCGACCTCAAACCTAGACGAATTCCG
DNA 2: CGGAATTCGTCTAGGTTTGAGGTUGACATCGGATCCATGGTACCTCGAGGGCAATGTCTA
modifications: dU at position 24 of strand 2
B1: binds.
